Here are results for one substance from patent US20110262447A1.

For this assay, the target named is wild-type p53 core domain (human) (UniProt P04637). Description: ELISA, plates coated with recombinant core domain. In general terms: In an ELISA, binding on a coated surface is turned into a signal by an enzyme label.
Chain of wild-type p53 core domain (human) (P04637 94-312): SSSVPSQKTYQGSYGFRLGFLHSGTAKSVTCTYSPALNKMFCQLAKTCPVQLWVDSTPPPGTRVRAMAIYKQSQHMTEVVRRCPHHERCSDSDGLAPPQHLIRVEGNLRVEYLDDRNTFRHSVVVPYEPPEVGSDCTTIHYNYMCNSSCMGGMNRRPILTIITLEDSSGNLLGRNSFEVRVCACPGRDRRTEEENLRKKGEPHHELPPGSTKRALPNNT

Turning to mAb 1620 (antibody), the O.D. turned out to be 1.2 O.D.
